Publication doi:10.1101/2024.02.22.580433 (bioRxiv, 2024)

Key:
[1] = target: gp275-do, the minimal MC1 domain of gp275 (Acanthamoeba polyphaga mimivirus) (UniProt Q5UPU2); experiment: SEC
SEC = target: the molecule itself; experiment: SEC

| Molecule | stoichiometry N [1] | stoichiometry N (SEC) |
| --- | --- | --- |
| gp275-do, the minimal MC1 domain of gp275 (from UniProt Q5UPU2 97-228) (domain or fragment) | 2 | – |
| Acanthamoeba polyphaga mimivirus gp275 (encoded by gene R252) (natural protein, UniProt Q5UPU2 1-278, looked up) MMIHIHQDKKMSTRSNKKSTKTEKVAKATKPVENVEVSDNEVQEQAVKTKASGKKVTAKSTKQSGGKNAKSGSKSAKSGSKSAKSGSKTSKTQSGGKGDESRDRYFKLIDAKTGRSFGRYTGGTPKQAASKGFTKMIHKIKAEGGALPKNGTMKIYLRESTRGSPRKVYAYEATRKQLTEPQKIEIEGSDGKKKVITYRYRNVIHKVSAPLPNQLGGLKTSRSNKKSGETKKSGSRSSGSKRSAKPTKSAKNAKSTGNKKVSTKSAGAKKAPAAKASR | – | 4 |
| gp275-K126A (natural protein, Acanthamoeba polyphaga mimivirus, UniProt Q5UPU2 1-278, looked up) MMIHIHQDKKMSTRSNKKSTKTEKVAKATKPVENVEVSDNEVQEQAVKTKASGKKVTAKSTKQSGGKNAKSGSKSAKSGSKSAKSGSKTSKTQSGGKGDESRDRYFKLIDAKTGRSFGRYTGGTPAQAASKGFTKMIHKIKAEGGALPKNGTMKIYLRESTRGSPRKVYAYEATRKQLTEPQKIEIEGSDGKKKVITYRYRNVIHKVSAPLPNQLGGLKTSRSNKKSGETKKSGSRSSGSKRSAKPTKSAKNAKSTGNKKVSTKSAGAKKAPAAKASR | – | 4 |
